B1: I1 NGAL mutant (ligand)
chain: QDSTSDLIPAPPLSSVPLQQNFQDNQFQGKWYVVGLAGNAILREDKDPQKMYATIYELKEDKSYNVTSVLFRDDGCDYWIRTFVPGCQPGEFTLGNIKSYPGLTSYLVRVVSTNYNQHAMVFFKKVSQNQEYFKITLYGRTKELTSELKENFIRFSKSLGLPENHIVFPVPIDQCIDG
B2: I3 NGAL mutant (ligand)
chain: QDSTSDLIPAPPLSKVPLQQNFQDNQFQGKWYVVGLAGNAILREDKDPQKMYATIYELKEDGSYNVTSVLFRDDGCDYWIRTFVPGCQPGEFTLGNIQSYPGLTSYLVRVVSTNYNQHAMVFFKKVSQNREYFKITLYGRTKELTSELKENFIRFSKSLGLPENHIVFPVPIDQCIDG
B3: K1 NGAL mutant (ligand)
chain: QDSTSDLIPAPPLSSVPLQQNFQDNQFQGKWYVVGLAGNAILREDEDPQKMYATIYELQEDKSYNVTSVLFRKKKCDYWIRTFVPGCQPGEFTLGNIQSYPGLTSYLVRVVSTNYNQFAMVFFKKVSQNQEYFKITLYGRTKELTSELQENFIRFSKSLGLPENNIVFPVPIDQCIDG
B4: K2 NGAL mutant (ligand)
chain: QDSTSDLIPAPPLSSVPLQQNFQDNQFQGKWYVVGLAGNAILREDKDPQKMYATIYELKEDKSYNVTSVLFRDDGCDYWIRTFVPGCQPGEFTLGNIQSYPGLTSYLVRVVSTNYNQFAMVFFKKVSQNQEYFKITLYGRTKELTSELQENFIRFSKSLGLPENNIVFPVPIDQCIDG
B5: K3 NGAL mutant protein (ligand)
chain: QDSTSDLIPAPPLSSVPLQQNFQDNQFQGKWYVVGLAGNAILREDEDPQKMYATIYELKEDKSYNVTSVLFRDDGCDYWIRTFVPGCQPGEFTLGNIQSYPGLTSYLVRVVSTNYNQFAMVFFKKVSQNQEYFKITLYGRTKELTSELQENFIRFSKSLGLPENNIVFPVPIDQCIDG
B6: K5 NGAL mutant (ligand)
chain: QDSTSDLIPAPPLSSVPLQQNFQDNQFQGKWYVVGLAGNAILREDEDPQKMYATIYELKEDKSYNVTSVLFRKKKCDYWIRTFVPGCQPGEFTLGNIQSYPGLTSYLVRVVSTNYNQFAMVFFKKVSQNQEYFKITLYGRTKELTSELQENFIRFSKSLGLPENNIVFPVPIDQCIDG
B7: A2 NGAL mutant (ligand)
chain: QDSTSDLIPAPPLSSVPLQQNFQDNQFQGKWYVVGLAGNAILREDKDPQKMYATIYELKEDKSYNVTSVLFRKKKCDYWIRTFVPGCQPGEFTLGNIKSYPGLTSYLVRVVSTNYNQHAMVFFKKVSQNREYFKITLYGQTQELTSELKENFIRFSKSLGLPENHIVFPVPIDQCIDG
B8: B4 NGAL mutant (ligand)
chain: QDSTSDLIPAPPLSKVPLQQNFQDNQFQGKWYVVGLAGNAILREDEDPQKMYATIYELKEDKSYNVTSVLFRKKKCDYWIRTFVPGCQPGEFTLGNIQSYPGLTSYLVRVVSTNYNQHAMVFFKKVSQNREYFKITLYGRTKELTSELKENFIRFSKSLGLPENHIVFPVPIDQCIDG
B9: C3 NGAL mutant (ligand)
chain: QDSTSDLIPAPPLSSVPLQQNFQDNQFQGKWYVVGLAGNAILREDKDPQTMYATIYELKEDKSYNVTSVLFQKKKCDYWIRTFVPGCQPGEFTLGNIKSYPGLTSYLVRVVSTNYNQHAMVFFKKVSQNREYFKITLYGRTKELTSELQENFIRFSQSLGLPENHIVFPVPIDQCIDG
B10: D1 NGAL mutant (ligand)
chain: QDSTSDLIPAPPLSKVPLQQNFQDNQFQGKWYVVGLAGNAILREDKDPQKMYATIYELKEDKSYNVTSVLFRDDGCDYWIRTFVPGCQPGEFTLGNIKSYPGLTSYLVRVVSTNYNQHAMVFFKKVSQNREYFKITLYGRTKELTSELKENFIRFSKSLGLPENHIVFPVPIDQCIDG
B11: F2 NGAL mutant (ligand)
chain: QDSTSDLIPAPPLSKVPLQQNFQDNQFQGKWYVVGLAGNAILREDEDPQKMYATIYELQEDKSYNVTSVLFRKKKCDYWIRTFVPGCQPGEFTLGNIKSYPGLTSYLVRVVSTNYNQHAMVFFKKVSQNREYFKITLYGRTKELTSELKENFIRFSKSLGLPENHIVFPVPIDQCIDG
B12: G3 NGAL mutant (ligand)
chain: QDSTSDLIPAPPLSKVPLQQNFQDNQFQGKWYVVGLAGNAILREDKDPQKMYATIYELKEDKSYNVTSVLFRKKKCDYWIRTFVPGCQPGEFTLGNIKSYPGLTSYLVRVVSTNYNQHAMVFFKKVSQNREYFKITLYGRTKELTSELKENFIRFSQSLGLPENHIVFPVPIDQCIDG
B13: H2 NGAL mutant (ligand)
chain: QDSTSDLIPAPPLSSVPLQQNFQDNQFQGKWYVVGLAGNAILREDKDPQKMYATIYELKEDKSYNVTSVLFRKKKCDYWIRTFVPGCQPGEFTLGNIQSYPGLTSYLVRVVSTNYNQFAMVFFKKVSQNQEYFKITLYGRTKELTSELQENFIRFSKSLGLPENNIVFPVPIDQCIDG
B14: I5 NGAL mutant (ligand)
chain: QDSTSDLIPAPPLSSVPLQQNFQDNQFQGKWYVVGLAGNAILREDKDPQKMYATIYELKEDGSYNVTSVLFRDDGCDYWIRTFVPGCQPGEFTLGNIKSYPGLTSYLVRVVSTNYNQHAMVFFKKVSQNQEYFKITLYGRTKELTSELKENFIRFSKSLGLPENHIVFPVPIDQCIDG

Molecular target: mouse megalin (mouse, UniProt A2ARV4 26-4660)
Sequence (A2ARV4 26-4660 limits assumed): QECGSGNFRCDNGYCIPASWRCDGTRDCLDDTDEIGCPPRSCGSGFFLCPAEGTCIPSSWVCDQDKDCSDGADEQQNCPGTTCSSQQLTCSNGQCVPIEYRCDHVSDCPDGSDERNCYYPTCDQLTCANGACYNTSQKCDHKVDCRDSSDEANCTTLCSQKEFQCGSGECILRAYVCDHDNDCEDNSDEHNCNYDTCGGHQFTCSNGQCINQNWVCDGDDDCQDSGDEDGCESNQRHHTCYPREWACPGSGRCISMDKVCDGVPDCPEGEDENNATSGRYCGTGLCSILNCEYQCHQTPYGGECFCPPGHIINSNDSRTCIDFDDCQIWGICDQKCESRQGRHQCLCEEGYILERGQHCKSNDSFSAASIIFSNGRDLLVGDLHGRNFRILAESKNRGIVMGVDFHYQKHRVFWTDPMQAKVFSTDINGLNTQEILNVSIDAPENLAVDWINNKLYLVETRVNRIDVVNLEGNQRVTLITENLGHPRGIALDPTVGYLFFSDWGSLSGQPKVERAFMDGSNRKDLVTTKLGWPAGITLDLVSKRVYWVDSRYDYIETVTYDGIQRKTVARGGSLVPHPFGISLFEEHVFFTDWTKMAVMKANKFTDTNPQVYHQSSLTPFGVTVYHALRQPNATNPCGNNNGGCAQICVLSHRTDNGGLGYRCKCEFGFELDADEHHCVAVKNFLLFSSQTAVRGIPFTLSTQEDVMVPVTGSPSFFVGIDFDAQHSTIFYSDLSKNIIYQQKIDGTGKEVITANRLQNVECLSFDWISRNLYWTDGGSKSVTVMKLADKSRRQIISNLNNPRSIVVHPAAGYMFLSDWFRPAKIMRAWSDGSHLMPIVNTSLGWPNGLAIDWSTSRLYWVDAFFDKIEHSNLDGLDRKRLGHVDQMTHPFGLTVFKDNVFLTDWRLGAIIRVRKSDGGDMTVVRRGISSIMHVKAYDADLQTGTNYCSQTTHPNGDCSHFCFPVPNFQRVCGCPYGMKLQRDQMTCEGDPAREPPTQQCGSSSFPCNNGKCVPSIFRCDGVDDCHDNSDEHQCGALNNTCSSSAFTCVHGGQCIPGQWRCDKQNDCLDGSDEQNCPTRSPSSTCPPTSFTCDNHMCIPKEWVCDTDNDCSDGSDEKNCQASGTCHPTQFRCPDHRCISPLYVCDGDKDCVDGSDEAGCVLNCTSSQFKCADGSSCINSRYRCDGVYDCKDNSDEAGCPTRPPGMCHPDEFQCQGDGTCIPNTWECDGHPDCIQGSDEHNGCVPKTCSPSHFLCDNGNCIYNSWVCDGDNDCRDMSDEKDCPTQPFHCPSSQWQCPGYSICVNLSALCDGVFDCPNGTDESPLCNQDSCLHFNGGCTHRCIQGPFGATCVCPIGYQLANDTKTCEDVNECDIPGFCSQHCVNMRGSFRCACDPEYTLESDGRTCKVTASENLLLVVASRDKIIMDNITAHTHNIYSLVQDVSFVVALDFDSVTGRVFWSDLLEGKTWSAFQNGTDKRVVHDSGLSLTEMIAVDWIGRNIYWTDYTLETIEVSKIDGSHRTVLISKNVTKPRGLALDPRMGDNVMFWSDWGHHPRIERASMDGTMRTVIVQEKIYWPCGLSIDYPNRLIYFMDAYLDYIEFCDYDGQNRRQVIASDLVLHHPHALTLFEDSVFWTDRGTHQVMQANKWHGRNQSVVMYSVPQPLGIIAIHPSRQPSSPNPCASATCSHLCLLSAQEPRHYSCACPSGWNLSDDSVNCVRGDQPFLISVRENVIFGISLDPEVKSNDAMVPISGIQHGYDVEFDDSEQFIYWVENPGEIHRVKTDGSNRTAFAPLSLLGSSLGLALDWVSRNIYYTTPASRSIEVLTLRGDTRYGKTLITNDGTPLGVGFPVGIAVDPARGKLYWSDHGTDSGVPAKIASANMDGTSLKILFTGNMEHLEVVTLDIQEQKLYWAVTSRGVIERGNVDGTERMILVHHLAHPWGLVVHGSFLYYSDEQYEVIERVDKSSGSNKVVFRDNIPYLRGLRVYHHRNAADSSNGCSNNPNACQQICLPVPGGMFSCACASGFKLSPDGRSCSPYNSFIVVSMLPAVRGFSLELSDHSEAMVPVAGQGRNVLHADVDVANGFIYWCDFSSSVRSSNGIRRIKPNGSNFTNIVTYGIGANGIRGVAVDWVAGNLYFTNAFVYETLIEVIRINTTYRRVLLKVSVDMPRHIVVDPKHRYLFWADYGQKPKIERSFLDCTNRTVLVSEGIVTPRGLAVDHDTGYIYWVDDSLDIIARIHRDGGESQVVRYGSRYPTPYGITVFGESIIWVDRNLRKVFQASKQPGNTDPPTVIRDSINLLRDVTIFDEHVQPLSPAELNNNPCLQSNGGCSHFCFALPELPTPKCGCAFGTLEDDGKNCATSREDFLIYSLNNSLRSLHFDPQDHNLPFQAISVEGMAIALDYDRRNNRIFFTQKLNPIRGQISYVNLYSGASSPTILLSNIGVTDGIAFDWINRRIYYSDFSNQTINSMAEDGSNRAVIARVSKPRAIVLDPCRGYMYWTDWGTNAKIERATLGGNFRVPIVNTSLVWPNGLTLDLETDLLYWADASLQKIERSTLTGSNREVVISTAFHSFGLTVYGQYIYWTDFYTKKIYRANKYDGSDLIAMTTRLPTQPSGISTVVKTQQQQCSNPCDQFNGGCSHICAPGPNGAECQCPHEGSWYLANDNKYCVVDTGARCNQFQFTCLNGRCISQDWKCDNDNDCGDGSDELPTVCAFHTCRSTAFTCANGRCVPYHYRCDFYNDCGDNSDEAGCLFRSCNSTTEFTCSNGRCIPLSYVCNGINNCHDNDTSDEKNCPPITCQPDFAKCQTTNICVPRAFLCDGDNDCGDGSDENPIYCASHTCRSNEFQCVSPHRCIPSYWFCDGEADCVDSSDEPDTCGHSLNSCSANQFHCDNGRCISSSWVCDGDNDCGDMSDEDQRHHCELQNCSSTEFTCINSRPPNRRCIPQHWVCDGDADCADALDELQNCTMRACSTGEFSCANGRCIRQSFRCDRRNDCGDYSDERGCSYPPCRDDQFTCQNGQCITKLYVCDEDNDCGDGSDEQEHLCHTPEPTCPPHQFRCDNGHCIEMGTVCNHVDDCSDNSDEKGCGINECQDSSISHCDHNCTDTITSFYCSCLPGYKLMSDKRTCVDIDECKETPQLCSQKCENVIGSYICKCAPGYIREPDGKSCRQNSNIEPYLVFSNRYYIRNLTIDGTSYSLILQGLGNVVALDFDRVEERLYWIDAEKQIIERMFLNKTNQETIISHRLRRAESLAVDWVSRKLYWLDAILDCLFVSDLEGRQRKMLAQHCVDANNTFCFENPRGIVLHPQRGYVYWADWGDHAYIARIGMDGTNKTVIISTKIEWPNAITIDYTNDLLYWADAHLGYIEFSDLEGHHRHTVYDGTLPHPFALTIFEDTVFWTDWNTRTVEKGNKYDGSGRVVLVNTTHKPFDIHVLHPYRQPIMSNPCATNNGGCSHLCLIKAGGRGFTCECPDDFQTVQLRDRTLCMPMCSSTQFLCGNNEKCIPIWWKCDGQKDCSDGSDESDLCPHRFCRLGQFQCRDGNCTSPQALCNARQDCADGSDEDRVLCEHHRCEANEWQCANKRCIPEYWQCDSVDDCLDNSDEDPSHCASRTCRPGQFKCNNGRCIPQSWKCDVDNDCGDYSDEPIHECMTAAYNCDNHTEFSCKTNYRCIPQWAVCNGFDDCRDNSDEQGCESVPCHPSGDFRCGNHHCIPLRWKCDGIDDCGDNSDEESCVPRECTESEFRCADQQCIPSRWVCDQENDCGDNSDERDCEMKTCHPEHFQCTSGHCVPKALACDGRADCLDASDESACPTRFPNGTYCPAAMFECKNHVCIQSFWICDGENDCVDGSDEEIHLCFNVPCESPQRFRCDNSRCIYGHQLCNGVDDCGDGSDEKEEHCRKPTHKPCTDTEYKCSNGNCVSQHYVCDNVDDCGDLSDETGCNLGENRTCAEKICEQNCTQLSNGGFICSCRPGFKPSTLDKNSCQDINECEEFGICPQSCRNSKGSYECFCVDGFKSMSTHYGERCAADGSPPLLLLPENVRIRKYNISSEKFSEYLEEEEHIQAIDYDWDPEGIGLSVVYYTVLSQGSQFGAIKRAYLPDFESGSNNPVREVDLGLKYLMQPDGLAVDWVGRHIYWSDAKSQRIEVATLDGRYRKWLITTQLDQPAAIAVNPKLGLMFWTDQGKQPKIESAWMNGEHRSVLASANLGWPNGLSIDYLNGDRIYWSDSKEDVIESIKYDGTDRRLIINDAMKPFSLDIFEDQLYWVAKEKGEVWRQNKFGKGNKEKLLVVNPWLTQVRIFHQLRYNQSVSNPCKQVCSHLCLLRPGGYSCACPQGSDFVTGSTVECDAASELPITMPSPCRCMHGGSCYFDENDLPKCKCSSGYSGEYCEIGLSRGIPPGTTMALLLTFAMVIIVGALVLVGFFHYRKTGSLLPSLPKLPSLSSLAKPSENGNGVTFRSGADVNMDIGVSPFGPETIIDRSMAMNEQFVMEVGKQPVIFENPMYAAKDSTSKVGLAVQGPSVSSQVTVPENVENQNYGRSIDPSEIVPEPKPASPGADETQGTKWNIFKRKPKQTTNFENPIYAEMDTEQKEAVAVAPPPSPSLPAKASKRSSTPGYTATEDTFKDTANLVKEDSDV
Assay: cell-based or functional assay

Point of comparison: B3, “% of i.p. injected NGAL-enterochelin-55Fe3+ complex delivered to mouse urine after 3 hours (escape from renal reabsorption)” value 1.9%. Against it:
- B1 — higher, 6%
- B2 — higher, 6.9%
- B4 — higher, 9.3%
- B5 — higher, 19.6%
- B6 — higher, 2.9%
- B7 — lower, 0.18%
- B8 — lower, 0.13%
- B9 — lower, 0.26%
- B10 — lower, 0.1%
- B11 — lower, 0.11%
- B12 — lower, 0.17%
- B13 — lower, 0.27%
- B14 — lower, 0.05%

Reference: patent publication US20170190751A1 (published 2017)
